Data from paper PMC9934407, “Comprehensive structural characterization of the human AAA+ disaggregase CLPB in the apo- and substrate-bound states reveals a unique mode of action driven by oligomerization” (PLOS Biology, 2023).
Residue numbers refer to the chain shown, from its start. Names may count otherwise. “And” between values parts separate entries of the source, which are not always exact repeats. Identical values can stand only once. One block for each molecule: values may come before it.

Experiments:
[1] = molecular target: human CLPB isoform 1 (human); experiment: negative staining electron microscopy + cryo-EM 2D classification; CLPB^isoform1-AMPPNP dataset, protein purified from E. coli
[2] = molecular target: human CLPB NBD-only variant with E425Q (human) (UniProt Q9H078); experiment: cryo-EM structure; NBD^E425Q-ATP dataset; self-assembly into hexamer, heptamer and nonamer
[3] = molecular target: human CLPB NBD-only variant (N-terminal ANK domain truncated) (human) (UniProt Q9H078); experiment: cryo-EM 2D classification; NBD^WT-AMPPNP dataset
[4] = molecular target: the molecule itself; experiment: SEC; purification of CLPB, CLPB^Δ201–232 and CLPB^isoform1 complexes by size-exclusion chromatography (S7C–S7E Fig)
[5] = molecular target: the molecule itself; experiment: cryo-EM 2D classification; CLPB-ATPγS dataset, control without casein
[6] = molecular target: the molecule itself; experiment: cryo-EM structure; CLPB^E425Q-ATP dataset; sample treated with ATP and about 1 mM BS3, 0.5 mM CHAPSO added; self-assembly of the mutant
[7] = molecular target: the molecule itself; experiment: SEC + other: negative staining electron microscopy; proteins purified from E. coli; Superose 6 Increase 10/300 GL, 20 mM HEPES-KOH pH 6.8, 300 mM KCl, 5 mM MgCl2; with or without AMPPNP; peak fraction seen by nsEM

stoichiometry N [1]: 14
Molecule: human CLPB isoform 1 (enzyme)

stoichiometry N [2]: 6 and 7 and 9
Molecule: human CLPB NBD-only variant with E425Q (from UniProt Q9H078-2 1-677) (domain or fragment)

stoichiometry N [3]: 6 and 7
Molecule: human CLPB NBD-only variant (N-terminal ANK domain truncated) (from UniProt Q9H078-2 1-677) (domain or fragment)

B1: human CLPB (isoform 2) with the ANK insertion deleted (enzyme, UniProt Q9H078-2 127-677, looked up)
chain: YSKSPSNKDAALLEAARANNMQEVSRLLSEGADVNAKHRLGWTALMVAAINRNNSVVQVLLAAGADPNLGDDFSSFKGCTALHYAVLADDYRTVKELLDGGANPLQRNEMGHTPLDYAREGEVMKLLRTSEAKYQEKQRKREAEERRRFPLEQRLKEHIIGQESAIATVGAAIRRKENGWYDEEHPLVFLFLGSSGIGKTELAKQTAKYMHKDAKKGFIRLDMSEFQERHEVAKFIGSPPGYVGHEEGGQLTKKLKQCPNAVVLFDEVDKAHPDVLTIMLQLFDEGRLTDGKGKTIDCKDAIFIMTSNVASDEIAQHALQLRQEALEMSRNRIAENLGDVQISDKITISKNFKENVIRPILKAHFRRDEFLGRINEIVYFLPFCHSELIQLVNKELNFWAKRAKQRHNITLLWDREVADVLVDGYNVHYGARSIKHEVERRVVNQLAAAYEQDLLPGGCTLRITVEDSDKQLLKSPELPSPQAEKRLPKLRLEIIDKDSKTRRLDIRAPLHPEKVCNTI
notes: human CLPB isoform 2 (CLPB-N127) with the insertion between AM2 and AM3 completely deleted; source: E. coli, purified; not shown: His×6-SUMO, N-terminal, cleaved
binding result [4]: binds

B2: human CLPB (isoform 2), construct CLPB-N127, wild type (enzyme, UniProt Q9H078-2 127-677, looked up)
chain: YSKSPSNKDAALLEAARANNMQEVSRLLSEGADVNAKHRLGWTALMVAAINRNNSVVQVLLAAGADPNLGDDFSSVYKTAKEQGIHSLEVLITREDDFNNRLNNRASFKGCTALHYAVLADDYRTVKELLDGGANPLQRNEMGHTPLDYAREGEVMKLLRTSEAKYQEKQRKREAEERRRFPLEQRLKEHIIGQESAIATVGAAIRRKENGWYDEEHPLVFLFLGSSGIGKTELAKQTAKYMHKDAKKGFIRLDMSEFQERHEVAKFIGSPPGYVGHEEGGQLTKKLKQCPNAVVLFDEVDKAHPDVLTIMLQLFDEGRLTDGKGKTIDCKDAIFIMTSNVASDEIAQHALQLRQEALEMSRNRIAENLGDVQISDKITISKNFKENVIRPILKAHFRRDEFLGRINEIVYFLPFCHSELIQLVNKELNFWAKRAKQRHNITLLWDREVADVLVDGYNVHYGARSIKHEVERRVVNQLAAAYEQDLLPGGCTLRITVEDSDKQLLKSPELPSPQAEKRLPKLRLEIIDKDSKTRRLDIRAPLHPEKVCNTI
notes: human CLPB, splicing isoform 2, starting from the PARL cleavage site (between C126 and Y127) to the C-terminus; Double-heptamer (tetradecamer) in the apo state; about 1 mM BS3 was added to the samples for cryo-EM; also called SKD3; WT CLPB; source: E. coli Transetta (DE3), purified (ammonium sulfate, Mono Q, TEV cleavage, Superose 6 SEC); not shown: His×6-SUMO, N-terminal, cleaved; copies: 14
stoichiometry N [5]: 14

B3: human CLPB (isoform 2, CLPB-N127) Walker B mutant E425Q (enzyme, UniProt Q9H078-2 127-677, looked up)
chain: B2 chain with E299Q
notes: human CLPB isoform 2 from the PARL cleavage site (Y127) to the C-terminus, with E425Q; Double-hexamer (dodecamer) with a co-purified endogenous peptide in the central channel; also called CLPB^E425Q; source: E. coli, purified as the wild type; not shown: His×6-SUMO, N-terminal, cleaved; copies: 12
stoichiometry N [6]: 12

B4: human CLPB (isoform 2) R227E (enzyme, UniProt Q9H078-2 127-677, looked up)
chain: B2 chain with R101E
notes: human CLPB isoform 2 (CLPB-N127) with R227E; also called CLPB^R227E; source: E. coli, purified; not shown: His×6-SUMO, N-terminal, cleaved
binding result [7]: binds

B5: human CLPB (isoform 2) R178E (enzyme, UniProt Q9H078-2 127-677, looked up)
chain: B2 chain with R52E
notes: human CLPB isoform 2 (CLPB-N127) with R178E; also called CLPB^R178E; source: E. coli, purified; not shown: His×6-SUMO, N-terminal, cleaved
binding result [7]: binds
